Source: patent US20240209058A1 (published 2024)

T1: human mesothelin (MSLN) peptide on HLA-A*02:01 (human)
T1 peptide: SLLFLLFSL

T2: human mesothelin (MSLN) peptide on HLA-A*02:01 (human)
T2 peptide: VLPLTVAEV

B1: MSLN20-28 clone 2 (TCR, V domains shown)
Valpha: DQQVKQNSPSLSVQEGRISILNCDYTNSMFDYFLWYKKYPAEGPTFLISISSIKDKNEDGRFTVFLNKSAKHLSLHIVPSQPGDSAVYFCAASGNTDKLIFGTGTRLQVFP
Vbeta: EPEVTQTPSHQVTQMGQEVILRCVPISNHLYFYWYRQILGQKVEFLVSFYNNEISEKSEIFDDQFSVERPDGSNFTLKIRSTKLEDSAMYFCASRPGWSYEQYFGPGTRLTVT
B2: MSLN20-28 clone 7 (TCR, V domains shown)
Valpha: ILNVEQSPQSLHVQEGDSTNFTCSFPSSNFYALHWYRWETAKSPEALFVMTLNGDEKKKGRISATLNTKEGYSYLYIKGSQPEDSATYLCAFYMDSNYQLIWGAGTKLIIKP
Vbeta: NAGVTQTPKFQVLKTGQSMTLQCAQDMNHNSMYWYRQDPGMGLRLIYYSASEGTTDKGEVPNGYNVSRLNKREFSLRLESAAPSQTSVYFCASSEWTAEQYFGPGTRLTVT
B3: MSLN20-28 clone 8 (TCR, V domains shown)
Valpha: AQSVTQLDSQVPVFEEAPVELRCNYSSSVSVYLFWYVQYPNQGLQLLLKYLSGSTLVKGINGFEAEFNKSQTSFHLRKPSVHISDTAEYFCAVIPNNNARLMFGDGTQLVVKP
Vbeta: ETGVTQTPRHLVMGMTNKKSLKCEQHLGHNAMYWYKQSAKKPLELMFVYNFKEQTENNSVPSRFSPECPNSSHLFLHLHTLQPEDSALYLCASGQGTEAFFGQGTRLTVV
B4: MSLN530-538 clone 4 (TCR, V domains shown)
Valpha: AQTVTQSQPEMSVQEAETVTLSCTYDTSESDYYLFWYKQPPSRQMILVIRQEAYKQQNATENRFSVNFQKAAKSFSLKISDSQLGDAAMYFCAYLGTGTYKYIFGTGTRLKVLA
Vbeta: EAQVTQNPRYLITVTGKKLTVTCSQNMNHEYMSWYRQDPGLGLRQIYYSMNVEVTDKGDVPEGYKVSRKEKRNFPLILESPSPNQTSLYFCASSSGGLGYTFGSGTRLTVV
B5: MSLN530-538 clone 5 (TCR, V domains shown)
Valpha: TQLLEQSPQFLSIQEGENLTVYCNSSSVFSSLQWYRQEPGEGPVLLVTVVTGGEVKKLKRLTFQFGDARKDSSLHITAAQTGDTGLYLCAGGMESGGGADGLTFGKGTHLIIQP
Vbeta: DTGVSQNPRHKITKRGQNVTFRCDPISEHNRLYWYRQTLGQGPEFLTYFQNEAQLEKSRLLSDRFSAERPKGSFSTLEIQRTEQGDSAMYLCASTSTGGLKNTEAFFGQGTRLTVV

Key:
[1] = biological target: T1, human mesothelin (MSLN) peptide on …; assay: multimer staining
[2] = biological target: T2, human mesothelin (MSLN) peptide on …; assay: multimer staining

Row | Binder | binding result [1] | binding result [2]
1 | B1 | recognises | –
2 | B2 | recognises | –
3 | B3 | recognises | –
4 | B4 | – | recognises
5 | B5 | – | recognises
